Data taken from patent US20170281764A1 (JN BIOSCIENCES, published 2017).
Residue numbers refer to the chain shown, from its start. Numbers in names are those of the source.

Columns and labels:
H55A = target: T1, H55A; experiment: flow cytometry titration on CHO-K1 cells transiently expressing the HA-tagged TIGIT mutant, Alexa488 anti-human IgG detection, four-parameter fit of percent of control, nM is from the concentration axis and paragraph 252
T1 construct: also called HA-tagged human TIGIT with mutation H55A, on CHO-K1 cells
T1 single chain: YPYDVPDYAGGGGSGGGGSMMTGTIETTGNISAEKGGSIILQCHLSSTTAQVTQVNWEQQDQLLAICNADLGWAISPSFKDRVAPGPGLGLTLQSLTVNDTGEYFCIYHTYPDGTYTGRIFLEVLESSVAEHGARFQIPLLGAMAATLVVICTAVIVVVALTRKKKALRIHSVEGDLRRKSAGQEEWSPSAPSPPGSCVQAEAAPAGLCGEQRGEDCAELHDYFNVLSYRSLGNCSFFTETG
Protocol: (§1) For flow cytometry analysis of the anti-hTIGIT antibody binding epitope, HA-tagged human TIGIT proteins with or without single amino acid mutation were transiently transfected into CHO-K1 cells. After 24 hr, transfected cells were suspended in HBSS buffer (Thermo Fisher Scientific, Cat#14175095), and incubated with HuTIG1-IgG1.AA antibody at varying concentrations in 50 μL volume. After 1 hr incubation at 4° C., cells were washed and a second incubation with 50 μL Alexa488 conjugated anti-human IgG(H+L) secondary antibody (Thermo Fisher Scientific, Cat#A-11013) was performed to detect cells bound by antibody. Cells were incubated with an anti-HA antibody (Sigma, Cat# H7411) as a positive control, and non-transfected CHO-K1 cells were used as a negative control. The cells were analyzed on an Attune NxT Cytometer (Thermo Fisher Scientific) and the data were processed using FlowJo software. For each mutant, the saturating antibody binding MFI (mean fluorescence intensity) were normalized to 100% POC (percent of control), and no primary antibody binding control MFI were normalized to 0% POC. Data were then fit to a four parameter non-linear sigmoidal curve using GraphPad Prism 7 curve fitting using following formula: Y=Bottom+(Top−Bottom)/(1+10^{((Log EC}^₅₀^{-X)*HillSlope)}).
(§2) All of these residues co-locate to one discrete region on the front ([…] structure of the TIGIT IgV extracellular domain (FIG. 28).

Y92A = target: T2, Y92A; experiment: as above
T2 construct: also called HA-tagged human TIGIT with mutation Y92A, on CHO-K1 cells
T2 single chain: T1 single chain with A74H, Y111A
Protocol: as §1, §2

T96A = target: T3, T96A; experiment: as above
T3 construct: also called HA-tagged human TIGIT with mutation T96A, on CHO-K1 cells
T3 single chain: T1 single chain with A74H, T115A
Protocol: as §1, §2

L52A = target: T4, L52A; experiment: as above
T4 construct: also called HA-tagged human TIGIT with mutation L52A, on CHO-K1 cells
T4 single chain: T1 single chain with L71A, A74H
Protocol: as §1, §2

[1] = target: T5, HA-tagged human TIGIT with mutation D51A, on CHO-K1 cells (human, UniProt Q495A1 22-244); experiment: as above
T5 construct: Built as for m17
T5 sequence: T1 single chain with D70A, A74H
Protocol: as §1, §2

[2] = target: T6, HA-tagged human TIGIT with mutation N49A, on CHO-K1 cells (human, UniProt Q495A1 22-244); experiment: flow cytometry on CHO-K1 cells transiently expressing HA-tagged TIGIT mutant; N49A mutant
T6 sequence: T1 single chain with N68A, A74H
Protocol: as §1, with “EC}^₅₀^{-X)*HillSlope)}). […]” for “EC}^₅₀^{-X)*HillSlope)}).”

B1: HuTIG1-IgG1.AA (humanized IgG1/kappa form of TIG1, L234A/L235A) (antibody)
heavy: not shown
light: DIQMTQSPSSLSASVGDRVTITCRASKSISKYLAWYQQKPGKAPKLLIYSGSTLQSGVPSRFSGSGSGTDFTLTISSLQPEDFATYYCQQHNEYPWTFGGGTKVEIKRTVAAPSVFIFPPSDEQLKSGTASVVCLLNNFYPREAKVQWKVDNALQSGNSQESVTEQDSKDSTYSLSSTLTLSKADYEKHKVYACEVTHQGLSSPVTKSFNRGEC
notes: Mature full chains; also called humanized TIG1
EC50 (H55A): 1.19 nM | EC50 (Y92A): 2.12 nM | EC50 (T96A): 1.36 nM | EC50 (L52A): 2.67 nM | EC50 [1]: 30.5 nM | EC50 [2]: 17.7 nM
